B1: VSTB103 (antibody, V domains shown)
VH: EVQLVQSGAEVKKPGESLKISCKGSGYSFTSYWIGWVRQMPGKGLEWMGIIYPGDSDTRYSPSFQGQVTISADKSISTAYLQWSSLKASDTAMYYCARDDALYGGYYLDYWGQGTLVTVSS
VL: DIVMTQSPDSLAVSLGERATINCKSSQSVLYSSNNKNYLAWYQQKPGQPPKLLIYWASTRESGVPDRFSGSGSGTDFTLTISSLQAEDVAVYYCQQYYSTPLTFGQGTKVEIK
B2: INX200 (antibody, V domains shown)
VH: QVQLVQSGAEVKKPGASVKVSCKASGYTFANYLIGWVRQAPGQRLEWMGDIYPGGGFISYNEKFKGRVTITRDTSASTAYMELSSLRSEDTAVYYCARRFDYGGYFFDYWGQGTLVTVSS
VL: DIVMTQSPLSLPVTPGEPASISCRSSQSIVHSNGNIYLEWYLQKPGQSPQLLIYKVSNRFSGVPDRFSGSGSGTDFTLKISRVEAEDVGVYYCFQGSHVPWTFGQGTKLEIK
modifications: Alexa Fluor 488 label in the flow-cytometry results (p-1139); unlabelled in the ELISAs
B3: INX200A (other)
VH: B2 VH
VL: B2 VL
modifications: Linker/payload A (esterase sensitive linker with dexamethasone) on the reduced interchain disulfide cysteines, DAR about 8; these cysteines lie in the constant regions, which are not given here.
B4: VSTB92 (antibody, V domains shown)
VH: B2 VH
VL: B2 VL
B5: VSTB66 (antibody, V domains shown)
VH: QVQLVQSGAEVKKPGASVKVSCKASGYPFTGYFMHWVRQAPGQGLEWMGRINPYNGGTVYNQNFNDRVTMTRDTSTSTVYMELSSLRSEDTAVYYCARWTFDGLFMDYWGQGTTVTVSS
VL: DVVMTQSPLSLPVTLGQPASISCRASENVDKYGISFMNWFQQRPGQSPRRLIYATSNQGSGVPDRFSGSGSGTDFTLKISRVEAEDVGVYYCQQSKEDPYTFGQGTKLEIK
B6: VSTB56 (antibody, V domains shown)
VH: QVQLVQSGAEVKKPGASVKVSCKASGYTFTSYWLHWVRQAPGQGLEWMGYIIPNTLHTDYNQKFKDRVTMTRDTSTSTVYMELSSLRSEDTAVYYCARLDGDYDYALDYWGQGTLVTVSS
VL: DIVMTQTPLSLSVTPGQPASISCRASESVEYYGTSFMQWYLQKPGQPPQLLIYTASNVESGVPDRFSGSGSGTDFTLKISRVEAEDVGVYYCQQSRKVPYTFGQGTKLEIK

Experiments:
human VISTA = target: T1, human VISTA (human, UniProt Q9H7M9 33-194, limits assumed); test: SPR on a ProteOn instrument; format of antibody and antigen not stated
T1 sequence: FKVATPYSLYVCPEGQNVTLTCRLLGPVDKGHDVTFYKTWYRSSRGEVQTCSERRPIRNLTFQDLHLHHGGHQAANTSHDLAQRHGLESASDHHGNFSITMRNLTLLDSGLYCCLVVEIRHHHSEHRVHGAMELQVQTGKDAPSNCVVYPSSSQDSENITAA

hIX50 (human VISTA ECD) [1] = target: T2, hIX50 (human VISTA ECD) (human, UniProt Q9H7M9 33-194, biotinylated in the pH ELISA (sites not given); not biotinylated when coated on the plate); test: ELISA: hIX50 coated at 1 ug/mL, antibody titrated, mouse anti-human kappa-HRP/TMB, OD450
T2 construct: also called soluble VISTA; biotinylated hIX50
T2 sequence: T1 sequence

hIX50 (human VISTA ECD) [2] = target: T2, hIX50 (human VISTA ECD); test: ELISA: INX200 coated at 1 ug/mL, biotinylated hIX50 titrated at pH 7.5, streptavidin-HRP/TMB; the concentration is that of hIX50
hIX50 (human VISTA ECD) [3] = target: T2, hIX50 (human VISTA ECD); test: ELISA: hIX50 coated at 1 ug/mL, conjugate titrated, mouse anti-human kappa-HRP/TMB, OD450

Binder | Kd (human VISTA) [nM] | other results
B1 | 0.64 | –
B2 | – | EC50 (read off the curve) (hIX50 (human VISTA ECD) [1]): ~8 ng/mL; EC50 (read off the curve) (hIX50 (human VISTA ECD) [2]): ~0.7 ng/mL
B3 | – | EC50 (read off the curve) (hIX50 (human VISTA ECD) [3]): ~10 ng/mL
B4 | 0.09 | –
B5 | 0.08 | –
B6 | 0.02 | –

From patent US20230310634A1 (IMMUNEXT, published 2023)
